This note sets out measurements from article PMC2737688.

In test [1] the target is BK α subunit (mSlo1) pseudo-wild-type with N200C (S3-S4 loop) (mouse). Kind of test: cross-linking.
Test [2] has as its target BK α subunit (mSlo1) pseudo-wild-type with K296C (S6 flank) (mouse). Description: cross-linking.

Where a chain is given by its changes, count along the chain named. Names and notes keep the numbering of the source. Where only a bound is given, the exact number is not on record here.

B1: BK β4 subunit pseudo-wild-type with A43C (TM1 flank), 3X FLAG (natural protein)
chain: MAKLRVAYEYTEAEDKSIRLGLFLIISGVVSLFIFGFAWLSPCLQDLQATEANCTVLSVQQIGEVFECTFTCGADCRGTSQYPCVQVYVNNSESNSRALLHSDEHQLLTNPKCSYIPPCKRENQKNLESVMNWQQYWKDEIGSQPFTCYFNQHQRPDDVLLHRTHDEIVLLHAFLWPLVTFVVGVLIVVLTICAKSLAVKAEAMKKRKFS
Molecule B1 showed an extent of disulfide crosslinking in test [1] of 30%.

B2: BK β4 subunit pseudo-wild-type with V169C (TM2 flank), 3X FLAG (natural protein)
chain: B1 chain with C43A, V169C
As for B2, the extent of disulfide crosslinking in test [2] was < 30%.
